# Experimental data from IntAct's records for PubMed 19797078.
# B1: Ribosome assembly factor MRT4 (Saccharomyces cerevisiae), P33201 (parent)
# chain: MPRSKRSKLVTLAQTDKKGRENKERIFDEVREALDTYRYVWVLHLDDVRTPVLQEIRTSWAGSKLIMGKRKVLQKALGEKREEEYKENLYQLSKLCSGVTGLLFTDEDVNTVKEYFKSYVRSDYSRPNTKAPLTFTIPEGIVYSRGGQIPAEEDVPMIHSLEPTMRNKFEIPTKIKAGKITIDSPYLVCTEGEKLDVRQALILKQFGIAASEFKVKVSAYYDNDSSTVESTNINME
# partner: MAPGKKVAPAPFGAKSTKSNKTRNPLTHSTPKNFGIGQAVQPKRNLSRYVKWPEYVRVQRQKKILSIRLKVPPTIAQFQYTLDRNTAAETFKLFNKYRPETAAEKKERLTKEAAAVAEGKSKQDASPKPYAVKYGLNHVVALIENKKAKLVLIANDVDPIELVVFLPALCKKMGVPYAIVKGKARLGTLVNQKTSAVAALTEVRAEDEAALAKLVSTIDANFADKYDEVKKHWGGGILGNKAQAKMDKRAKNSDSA
# B2: Tyrosine-protein phosphatase YVH1 (Saccharomyces cerevisiae), Q02256 (parent)
# chain: MAGNANSVDEEVTRILGGIYLGGIRPIIDHRPLGAEFNITHILSVIKFQVIPEYLIRKGYTLKNIPIDDDDVTDVLQYFDETNRFIDQCLFPNEVEYSPRLVDFKKKPQRGAVFAHCQAGLSRSVTFIVAYLMYRYGLSLSMAMHAVKRKKPSVEPNENFMEQLHLFEKMGGDFVDFDNPAYKQWKLKQSIKLDPSGSELVSNSGMFKDSESSQDLDKLTEAEKSKVTAVRCKKCRTKLALSTSFIAHDPPSKESSEGHFIKRAANSHRIIDIQESQANCSHFFIEPLKWMQPELQGKQELEGKFSCPGCSSKVGGYNWKGSRCSCGKWVIPAIHLQTSKVDQFPLQSTALPNMVNFESEKVNR
# partner: B1 partner
# Variants of: B1
# Details: with rl8a_yeast RPL8A
row,effect of a mutation on the interaction,Variant
1,decreasing interaction,G68D

# Variants of: B2
# Details: with rl8a_yeast RPL8A
row,effect of a mutation on the interaction,Variant
1,decreasing interaction,C117S
